In US20250381289A1 (Genmab, published 2025):

Experiments:
[1] = biological target: T1, cMET on EGFR and cMET co-expressed tumor cell lines (UniProt P08581 25-1390, limits assumed); experiment: flow cytometry, MKN-45 cells
T1 construct: whole, on cells

[2] = biological target: T1, cMET on EGFR and cMET co-expressed …; experiment: flow cytometry, MKN-45 cells; remark: listed apart in the source
human cMET-Fc = biological target: T2, human cMET-Fc (human, UniProt P08581 25-932); experiment: blocking ELISA: coated human cMET-Fc, antibody titrated, then human HGF-His (blocked ligand), anti-His-HRP
T2 construct: not shown: Fc part, not described

Human cMET = biological target: T3, Human cMET; experiment: ELISA, plate coated with 100 ng/well human cMET recombinant protein, HRP anti-human Fc, OD450
T3 construct: also called human cMET recombinant protein
T3 chain: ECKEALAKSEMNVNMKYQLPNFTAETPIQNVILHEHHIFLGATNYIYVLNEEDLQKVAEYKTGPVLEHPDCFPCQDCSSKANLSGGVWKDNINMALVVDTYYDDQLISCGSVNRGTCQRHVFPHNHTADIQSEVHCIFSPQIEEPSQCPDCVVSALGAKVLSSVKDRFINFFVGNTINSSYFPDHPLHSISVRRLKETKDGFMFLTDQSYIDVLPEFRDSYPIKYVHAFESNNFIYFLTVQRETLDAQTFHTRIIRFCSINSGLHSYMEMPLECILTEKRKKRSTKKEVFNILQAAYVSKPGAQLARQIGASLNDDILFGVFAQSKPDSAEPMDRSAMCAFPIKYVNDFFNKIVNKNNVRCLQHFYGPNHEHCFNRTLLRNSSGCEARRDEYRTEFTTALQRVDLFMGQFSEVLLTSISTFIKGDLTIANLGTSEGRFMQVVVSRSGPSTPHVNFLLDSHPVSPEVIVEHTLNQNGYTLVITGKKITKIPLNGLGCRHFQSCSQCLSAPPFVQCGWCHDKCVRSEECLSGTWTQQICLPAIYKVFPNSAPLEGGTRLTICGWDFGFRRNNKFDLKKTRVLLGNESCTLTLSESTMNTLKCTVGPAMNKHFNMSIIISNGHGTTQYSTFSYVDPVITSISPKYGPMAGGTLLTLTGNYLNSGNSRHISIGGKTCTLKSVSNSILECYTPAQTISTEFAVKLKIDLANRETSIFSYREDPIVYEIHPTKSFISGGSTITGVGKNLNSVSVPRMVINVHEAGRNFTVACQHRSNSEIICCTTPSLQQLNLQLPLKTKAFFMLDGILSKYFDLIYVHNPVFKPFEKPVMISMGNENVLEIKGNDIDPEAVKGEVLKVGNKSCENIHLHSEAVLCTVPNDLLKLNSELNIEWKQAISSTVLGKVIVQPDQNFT

[3] = biological target: T4, EGFR on EGFR and cMET co-expressed tumor cell lines (UniProt P00533 25-1210, limits assumed); experiment: flow cytometry on SNU-5 cells (co-express EGFR and cMET), PE anti-human Fc; signal of the whole bispecific, not resolved by arm
T4 construct: whole, on cells

[4] = biological target: T1, cMET on EGFR and cMET co-expressed …; experiment: as above
[5] = biological target: T4, EGFR on EGFR and cMET co-expressed …; experiment: flow cytometry on EBC-1 cells (co-express EGFR and cMET), PE anti-human Fc; signal of the whole bispecific, not resolved by arm
[6] = biological target: T1, cMET on EGFR and cMET co-expressed …; experiment: as above
Human EGFR = biological target: T5, Human EGFR (human, UniProt P00533); experiment: ELISA, plate coated with 100 ng/well human EGFR recombinant protein, HRP anti-human Fc, OD450
T5 construct: recombinant protein coated on the ELISA plate; also called human EGFR recombinant protein

[7] = biological target: T4, EGFR on EGFR and cMET co-expressed …; experiment: flow cytometry on CAL-27 cells (co-express EGFR and cMET), PE anti-human Fc; signal of the whole bispecific, not resolved by arm
[8] = biological target: T1, cMET on EGFR and cMET co-expressed …; experiment: as above
[9] = biological target: T4, EGFR on EGFR and cMET co-expressed …; experiment: flow cytometry, EBC-1 cells (co-express EGFR and cMET; both arms contribute)
[10] = biological target: T1, cMET on EGFR and cMET co-expressed …; experiment: as above
[11] = biological target: T1, cMET on EGFR and cMET co-expressed …; experiment: flow cytometry, MKN-45 cells; remark: listed apart in the source
[12] = biological target: T1, cMET on EGFR and cMET co-expressed …; experiment: flow cytometry, NCI-H1975 cells
[13] = biological target: T1, cMET on EGFR and cMET co-expressed …; experiment: flow cytometry, NCI-H441 cells

B1: Telisotuzumab (antibody, V domains shown)
VH: QVQLVQSGAEVKKPGASVKVSCKASGYIFTAYTMHWVRQAPGQGLEWMGWIKPNNGLANYAQKFQGRVTMTRDTSISTAYMELSRLRSDDTAVYYCARSEITTEFDYWGQGTLVTVSS
VL: DIVMTQSPDSLAVSLGERATINCKSSESVDSYANSFLHWYQQKPGQPPKLLIYRASTRESGVPDRFSGSGSGTDFTLTISSLQAEDVAVYYCQQSKEDPLTFGGGTKVEIK
For B1, the “EC50 (read off the curve)” value [1] was about 0.8 nM, the “EC50 (read off the curve)” value [2] was about 1 nM and the “IC50 (read off the curve)” value (human cMET-Fc) was about 1 nM.

B2: AZD9592 (bispecific antibody, human IgG1, kappa, lambda)
anti-EGFR heavy chain: QVQLVQSGAEVKKPGSSVKVSCKASGGTFSDNDFSWVRQAPGQGLEWMGAIVAVFRTETYAQKFQDRVKITADISTRTTYMELSSLRSEDTAVYYCARRLMSAISGPGAPLLMWGQGTLVTVSSASTKGPSVCPLAPSSKSTSGGTAALGCLVKDYFPEPVTVSWNSGALTSGVHTFPAVLQSSGLYSLSSVVTVPSSSLGTQTYICNVNHKPSNTKVDKRVEPKSVDKTHTCPPCPAPEFEGGPSVFLFPPKPKDTLMISRTPEVTCVVVDVSHEDPEVKFNWYVDGVEVHNAKTKPREEQYNSTYRVVSVLTVLHQDWLNGKEYKCKVSNKALPASIEKTISKAKGQPREPQVYTLPPCREEMTKNQVSLWCLVKGFYPSDIAVEWESNGQPENNYKTTPPVLDSDGSFFLYSKLTVDKSRWQQGNVFSCSVMHEALHNHYTQKSLSLSPGK
anti-EGFR light chain: QSALTQPRSVSGSPGQSVTISCTGTSSDVGGYNYVSWYQQHPGKAPKLMIYDVSKRPSGVPDRFSGSKSGNTASLTISGLQAEDEADYYCSSYTSSDTLEIFGGGTKLTVLGQPKAAPSVTLFPPCSEELQANKATLVCLISDFYPGAVTVAWKADSSPVKAGVETTTPSKQSNNKYAASSYLSLTPEQWKSHRSYSCQVTHEGSTVEKTVAPTEVS
anti-cMET heavy chain: QVQLVQSGAEVKKPGASVKVSCKASGYTFTDYYIHWVRQATGQGLEWMGWMNPNSGNTGYAQKFQGRVTMTRDTSISTAYMELSSLRSEDTAVYYCARGQGYTHSWGQGTMVTVSSASTKGPSVFPLAPSSKSTSGGTAALGCLVKDYFPEPVTVSWNSGALTSGVHTFPAVLQSSGLYSLSSVVTVPSSSLGTQTYICNVNHKPSNTKVDKRVEPKSCDKTHTCPPCPAPEFEGGPSVFLFPPKPKDTLMISRTPEVTCVVVDVSHEDPEVKFNWYVDGVEVHNAKTKPREEQYNSTYRVVSVLTVLHQDWLNGKEYKCKVSNKALPASIEKTISKAKGQPREPQVCTLPPSREEMTKNQVSLSCAVKGFYPSDIAVEWESNGQPENNYKTTPPVLDSDGSFFLVSKLTVDKSRWQQGNVFSCSVMHEALHNHYTQKSLSLSPGK
anti-cMET light chain: DIQMTQSPSTLSASVGDRVTITCRASEGIYHWLAWYQQKPGKAPKLLIYKASSLASGVPSRFSGSGSGTEFTLTISSLQPDDFATYYCQQYSNYPPTFGGGTKLEIKRTVAAPSVFIFPPSDEQLKSGTASVVCLLNNFYPREAKVQWKVDNALQSGNSQESVTEQDSKDSTYSLSSTLTLSKADYEKHKVYACEVTHQGLSSPVTKSFNRGEC
In the case of B2, the “EC50 (read off the curve)” value (Human cMET) is reported as about 0.07 nM, the “EC50 (read off the curve)” value [3] is reported as about 3 nM and the “EC50 (read off the curve)” value [4] is reported as about 3 nM. For the same binder, the “EC50 (read off the curve)” value [5] was about 2 nM, the “EC50 (read off the curve)” value [6] was about 2 nM and the “EC50 (read off the curve)” value (Human EGFR) was about 1 nM. The “EC50 (read off the curve)” value [7] was about 10 nM and the “EC50 (read off the curve)” value [8] was about 10 nM.

B3: Bsab 44 (bispecific antibody, human IgG1, kappa, L234A L235A)
anti EGFR knob chain (scFab): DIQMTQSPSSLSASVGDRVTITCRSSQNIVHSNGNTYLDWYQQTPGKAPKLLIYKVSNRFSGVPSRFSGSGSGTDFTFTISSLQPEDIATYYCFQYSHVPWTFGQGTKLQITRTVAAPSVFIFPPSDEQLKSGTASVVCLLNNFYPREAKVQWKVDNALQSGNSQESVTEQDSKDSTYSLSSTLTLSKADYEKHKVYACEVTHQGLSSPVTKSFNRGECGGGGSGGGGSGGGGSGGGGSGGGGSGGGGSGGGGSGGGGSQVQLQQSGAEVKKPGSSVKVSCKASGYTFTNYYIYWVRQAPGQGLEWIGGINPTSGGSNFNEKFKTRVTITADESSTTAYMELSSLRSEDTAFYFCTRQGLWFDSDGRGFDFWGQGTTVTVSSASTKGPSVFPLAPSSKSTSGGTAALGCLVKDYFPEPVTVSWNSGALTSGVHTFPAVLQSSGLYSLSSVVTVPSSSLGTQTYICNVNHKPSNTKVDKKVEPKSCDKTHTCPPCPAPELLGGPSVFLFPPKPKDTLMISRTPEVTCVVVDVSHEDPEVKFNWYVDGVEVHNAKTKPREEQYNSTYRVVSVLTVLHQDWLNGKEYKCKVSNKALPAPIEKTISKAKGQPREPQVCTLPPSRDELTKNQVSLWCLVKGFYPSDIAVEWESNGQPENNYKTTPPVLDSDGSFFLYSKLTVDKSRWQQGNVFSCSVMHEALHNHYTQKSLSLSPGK
anti cMET hole chain (scFab): DIQMTQSPSSLSASVGDRVTITCKSSQSLLYTSSQKNYLAWYQQKPGKAPKLLIYWASTRESGVPSRFSGSGSGTDFTLTISSLQPEDFATYYCQQYYAYPWTFGQGTKVEIKRTVAAPSVFIFPPSDEQLKSGTASVVCLLNNFYPREAKVQWKVDNALQSGNSQESVTEQDSKDSTYSLSSTLTLSKADYEKHKVYACEVTHQGLSSPVTKSFNRGECGGGGSGGGGSGGGGSGGGGSGGGGSGGGGSGGGGSGGGGSEVQLVESGGGLVQPGGSLRLSCAASGYTFTSYWLHWVRQAPGKCLEWVGMIDPSNSDTRFNPNFKDRFTISADTSKNTAYLQMNSLRAEDTAVYYCATYRSYVTPLDYWGQGTLVTVSSASTKGPSVFPLAPSSKSTSGGTAALGCLVKDYFPEPVTVSWNSGALTSGVHTFPAVLQSSGLYSLSSVVTVPSSSLGTQTYICNVNHKPSNTKVDKKVEPKSCDKTHTCPPCPAPEAAGGPSVFLFPPKPKDTLMISRTPEVTCVVVDVSHEDPEVKFNWYVDGVEVHNAKTKPREEQYNSTYRVVSVLTVLHQDWLNGKEYKCKVSNKALPAPIEKTISKAKGQPREPQVYTLPPCREEMTKNQVSLSCAVKGFYPSDIAVEWESNGQPENNYKTTPPVLDSDGSFFLVSKLTVDKSRWQQGNVFSCSVMHEALHNHYTQKSLSLSPGK
In the case of B3, the “EC50 (read off the curve)” value [9] is reported as about 2 nM and the “EC50 (read off the curve)” value [10] is reported as about 2 nM.

B4: Onartuzumab (antibody, V domains shown)
VH: EVQLVESGGGLVQPGGSLRLSCAASGYTFTSYWLHWVRQAPGKGLEWVGMIDPSNSDTRFNPNFKDRFTISADTSKNTAYLQMNSLRAEDTAVYYCATYRSYVTPLDYWGQGTLVTVSS
VL: DIQMTQSPSSLSASVGDRVTITCKSSQSLLYTSSQKNYLAWYQQKPGKAPKLLIYWASTRESGVPSRFSGSGSGTDFTLTISSLQPEDFATYYCQQYYAYPWTFGQGTKVEIK
With B4 the “EC50 (read off the curve)” value [11] was about 1 nM, the “EC50 (read off the curve)” value [12] was about 0.4 nM and the “EC50 (read off the curve)” value [13] was about 0.7 nM.
